Assay [1] concerns HCT-116 cells. Type of assay: cell-based. The procedure: The apoptotic activity of test peptides is measured using an HCT-116 proliferation assay. The HCT-116 assay is used to measure the activity of TRAIL R2 agonist peptides using the colon carcinoma cell line HCT-116 (ATCC, Manassas, Va.).
In more detail, a peptide homotrimer based on the peptide monomer sequence of SEQ ID NO: 19 (See, FIG. 8B) is tested for functional activity using the HCT-116 proliferation assay. HCT-116 cells are incubated for one to two days in the presence of serially diluted peptide dimers or peptide trimers. […]
Cell viability is measured using an MTT colorimetric viability assay, a colorimetric assay that analyzes the number of viable cells by measuring the ability of mitochondrial dehydrogenase enzyme in the viable cells to cleave tetrazolium salts added to the culture medium [See, Mosmann (1983) J. Immunol. […] Using this assay, cell proliferation is assessed after 24-48 hours by adding 10 μL of MTT stock solution (ATCC, Manassas, Va.) to the wells. […] After incubation overnight in a 37° C., 5% CO2 incubator, the plates are quantified by reading the optical density at 595 nm (OD595) in a SpectraMax M5 microplate reader (Molecular Devices, Sunnyvale, Calif.). The data are analyzed using GraphPad® Prism software (La Jolla, Calif.) to calculate IC50 values from a 4-parameter logistic equation.

Assay [2] relates to Jurkat cells. Type of assay: cell-based. The protocol:
The apoptotic activity of test peptides is measured using a Jurkat proliferation assay.
Jurkat cells are obtained from the American Type Culture Collection (ATCC, Manassas, Va.) and are maintained in RPMI-1640 medium supplemented with 10% FBS, 100 U/mL penicillin, and 100 […] (Growth Medium). […] Cells are resuspended at a density of 1×10^6 cells/mL in Growth Medium, and 50 μl cells is added to each well of the assay plates. The plates are incubated in a 37° C., 5% CO2 incubator for 24-48 hours. Proliferation is assessed by adding 10 μL of MTT stock solution (ATCC, Manassas, Va.) to the wells. The plates are incubated in a 37° C., 5% CO2 incubator for another 2-4 hours, followed by the addition of 100 μL of 20% SDS with 0.01 N HCl. After incubation overnight in a 37° C., 5% CO2 incubator, the plates are quantified by reading the optical density at a wavelength of 595 nm (OD595) in a SpectraMax® M5 microplate reader (Molecular Devices, Sunnyvale, Calif.). The data are analyzed using GraphPad Prism® software (La Jolla, Calif.) to calculate IC50 values from a 4-parameter logistic equation.

The target of assay [3] is TRAIL R2 receptor on HCT-116 or Jurkat cells (UniProt O14763 56-440, limits assumed). Put plainly: cell-based or functional assay.
Assay [4] addresses T1, Recombinant human TRAIL R2-Fc fusion protein (R&D Systems) (human, UniProt O14763 52-182, limits assumed).
T1 construct: Bought from R&D Systems; held on protein A-coated acceptor beads in the AlphaQuest/AlphaScreen assay; also called TRAIL R2 receptor; R2 receptor; not shown: Fc part of the bought fusion protein
Put plainly: AlphaQuest competition: displaces biotinylated TRAIL ligand from human TRAIL R2-Fc. The protocol:
The plates are sealed with adhesive sealing film and covered with aluminum foil, centrifuged at 600 rpm for 30 seconds and incubated overnight in the dark. […] The raw data are analyzed using GraphPad Prism® software (La Jolla, Calif.) to calculate IC₅₀ values from a 4-parameter logistic equation.
The binding affinity of the antagonist peptides and peptide-based compounds of the invention are measured according to the AlphaQuest® Competitive Binding Assay, described above, in Example 1.1. The IC₅₀ values are determined for each test peptide or test compound. The compounds tested are homodimers and homotrimers of peptides comprising the amino sequence set forth in SEQ ID NOs: 33 and 34, linked by DIG or TSAT, respectively.

Numbered stars: 1 amine (or outer) side, 2 acyl side, 3 side chain; on linkers, the order of the positions; unused ones are H or OH. Bridge positions count the residues as written; N and C are the ends. Peptide text beside a SMILES is read from it. I, II: the chains in the order shown. TSAT = Tris-succinimidyl aminotriacetate linker; Isophthaloyl = O=C(c1cccc(C(=O)[*:2])c1)[*:1]; X1 = O=C(CN(CC(=O)[*:2])CC(=O)[*:3])[*:1]; Diglycolyl = O=C(COCC(=O)[*:2])[*:1]; DIG = diglycolic acid linker

Broadly, the EC50 is the concentration that produces a half-maximal response. Read a high EC50 as lower potency in that assay. With “I: Ac-WDCLDNRIGRRQCVKL-NH2 / II: Ac-WDCLDNRIGRRQCVKL-NH2 / III: Ac-WDCLDNRIGRRQCVKL-NH2 (disulfide I:3-I:13, II:3-II:13, III:3-III:13 (inferred); linker I:15-II:15-III:15 via X1 (inferred)) [SEQ ID NO: 19 homotrimer]”, in assay [1], the EC50 is roughly 480 nM. Molecule `CC[C@H](C)[C@@H]1NC(=O)[C@H](CCCNC(=N)N)NC(=O)[C@H](CC(N)=O)NC(=O)[C@H](CC(=O)O)NC(=O)[C@H](CC(C)C)NC(=O)[C@@H](NC(=O)[C@H](CC(=O)O)NC(=O)[C@H](Cc2c[nH]c3ccccc23)NC(C)=O)CSSC[C@@H](C(=O)N[C@H](C(=O)N[C@@H](CCCCNC(=O)c2cccc(C(=O)NCCCC[C@H](NC(=O)[C@@H](NC(=O)[C@@H]3CSSC[C@H](NC(=O)[C@H](CC(=O)O)NC(=O)[C@H](Cc4c[nH]c5ccccc45)NC(C)=O)C(=O)N[C@@H](CC(C)C)C(=O)N[C@@H](CC(=O)O)C(=O)N[C@@H](CC(N)=O)C(=O)N[C@@H](CCCNC(=N)N)C(=O)N[C@@H]([C@@H](C)CC)C(=O)NCC(=O)N[C@@H](CCCNC(=N)N)C(=O)N[C@@H](CCCNC(=N)N)C(=O)N[C@@H](CCC(N)=O)C(=O)N3)C(C)C)C(=O)N[C@@H](CC(C)C)C(N)=O)c2)C(=O)N[C@@H](CC(C)C)C(N)=O)C(C)C)NC(=O)[C@H](CCC(N)=O)NC(=O)[C@H](CCCNC(=N)N)NC(=O)[C@H](CCCNC(=N)N)NC(=O)CNC1=O` [SEQ ID NO: 19 homodimer (IPA linker)] (I: Ac-WDCLDNRIGRRQCVKL-NH2 / II: Ac-WDCLDNRIGRRQCVKL-NH2; disulfide I:3-I:13, II:3-II:13; linker I:15-II:15 via Isophthaloyl) yielded an EC50 in assay [2] of 1400 to 4020 nM. Still for that read-out and setting: the value for `CC(=O)N[C@@H](Cc1c[nH]c2ccccc12)C(=O)N[C@@H](CC(=O)O)C(=O)N[C@H]1CSSC[C@@H](C(=O)N[C@H](C(=O)N[C@@H](CCCNC(=N)N)C(=O)N[C@@H](CC(C)C)C(=O)N[C@@H](CCC(=O)O)C(=O)N[C@@H](CCCCNC(=O)COCC(=O)NCCCC[C@H](NC(=O)[C@H](CCC(=O)O)NC(=O)[C@H](CC(C)C)NC(=O)[C@H](CCCNC(=N)N)NC(=O)[C@@H](NC(=O)[C@@H]2CSSC[C@H](NC(=O)[C@H](CC(=O)O)NC(=O)[C@H](Cc3c[nH]c4ccccc34)NC(C)=O)C(=O)N[C@@H](CC(C)C)C(=O)N[C@@H](C(C)C)C(=O)N[C@@H](CC(=O)O)C(=O)N[C@@H](CCCNC(=N)N)C(=O)N3CCC[C@H]3C(=O)NCC(=O)N[C@@H](CCCNC(=N)N)C(=O)N[C@@H](CCCNC(=N)N)C(=O)N[C@@H](CCC(N)=O)C(=O)N2)C(C)C)C(N)=O)C(N)=O)C(C)C)NC(=O)[C@H](CCC(N)=O)NC(=O)[C@H](CCCNC(=N)N)NC(=O)[C@H](CCCNC(=N)N)NC(=O)CNC(=O)[C@@H]2CCCN2C(=O)[C@H](CCCNC(=N)N)NC(=O)[C@H](CC(=O)O)NC(=O)[C@H](C(C)C)NC(=O)[C@H](CC(C)C)NC1=O` [SEQ ID NO: 29 homodimer] (I: Ac-WDCLVDRPGRRQCVRLEK-NH2 / II: Ac-WDCLVDRPGRRQCVRLEK-NH2; disulfide I:3-I:13, II:3-II:13 (inferred); linker I:18-II:18 via Diglycolyl (inferred)) was 1300 to 1660 nM. The same measure, in the same setting: the value for `CC(=O)N[C@@H](Cc1c[nH]c2ccccc12)C(=O)N[C@@H](CC(=O)O)C(=O)N[C@H]1CSSC[C@@H](C(=O)N[C@H](C(=O)N[C@@H](CCCCNC(=O)COCC(=O)NCCCC[C@H](NC(=O)[C@@H](NC(=O)[C@@H]2CSSC[C@H](NC(=O)[C@H](CC(=O)O)NC(=O)[C@H](Cc3c[nH]c4ccccc34)NC(C)=O)C(=O)N[C@@H](CC(C)C)C(=O)N[C@@H](C(C)C)C(=O)N[C@@H](CC(=O)O)C(=O)N[C@@H](CCCNC(=N)N)C(=O)N3CCC[C@H]3C(=O)NCC(=O)N[C@@H](CCCNC(=N)N)C(=O)N[C@@H](CCCNC(=N)N)C(=O)N[C@@H](CCC(N)=O)C(=O)N2)C(C)C)C(=O)N[C@@H](CC(C)C)C(=O)N[C@@H](CCC(=O)O)C(=O)N[C@@H](CCCNC(=N)N)C(N)=O)C(=O)N[C@@H](CC(C)C)C(=O)N[C@@H](CCC(=O)O)C(=O)N[C@@H](CCCNC(=N)N)C(N)=O)C(C)C)NC(=O)[C@H](CCC(N)=O)NC(=O)[C@H](CCCNC(=N)N)NC(=O)[C@H](CCCNC(=N)N)NC(=O)CNC(=O)[C@@H]2CCCN2C(=O)[C@H](CCCNC(=N)N)NC(=O)[C@H](CC(=O)O)NC(=O)[C@H](C(C)C)NC(=O)[C@H](CC(C)C)NC1=O` [SEQ ID NO: 31 homodimer] (I: Ac-WDCLVDRPGRRQCVKLER-NH2 / II: Ac-WDCLVDRPGRRQCVKLER-NH2; disulfide I:3-I:13, II:3-II:13 (inferred); linker I:15-II:15 via Diglycolyl (inferred)) was greater than 22000 nM. Broadly, the IC50 is the midpoint of a concentration-inhibition curve. On to Ac-WDCLDNRIGK(DIG)RQCVR-NH2 (disulfide 3-13 (inferred); also: homodimer joined by DIG linker at Lys10, also called 33 Dimer DIG) [peptide homodimer based on the monomer amino acid sequence of SEQ ID NO: 33, DIG linker], for which the “EC50, Jurkat antagonist assay (inhibition of TRAIL ligand-induced apoptosis)” value in assay [3] worked out at 5440 nM. Moreover, the IC50 in assay [4] came out at 0.111 nM. The like results for Ac-WDCLDNRIGK(DIG)RQCVRA-NH2 (disulfide 3-13 (inferred); also: homodimer joined by DIG linker at Lys10, also called 34 Dimer DIG) [peptide homodimer based on the monomer amino acid sequence of SEQ ID NO: 34, DIG linker] were, in that order, 1580 nM and 0.06 nM. The like results for Ac-WDCLDNRIGK(TSAT)RQCVRA-NH2 (disulfide 3-13 (inferred); also: homotrimer joined by TSAT linker at Lys10) [peptide homotrimer based on the monomer amino acid sequence of SEQ ID NO: 34, TSAT linker] were, in that order, 323 nM and 0.038 nM.

Source of the values: patent publication US20090131317A1, “COMPOUNDS AND PEPTIDES THAT BIND THE TRAIL RECEPTOR” (AFFYMAX, INC., priority 2007, published 2009).
